B1: F1*; the commonest letter at each place (parent)
chain: GAGACCGCAACTGAAAAGTTGTTATCACTTGTCGTAAGACACTTTGGATGGGTTGAAGTTCTGCACGTAGAAGCAAAAGGC

Variants of: B1
Assay: fraction ligated after 30 min (ligated reads / total reads); higher = more ligase activity
Conditions: with F1*sub RNA substrate (template-directed ligation), 42 °C
Protocol: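 Chip-synthesised pool of F1* ligase ribozyme variants (all single and double substitutions, single, double and triple deletions in the catalytic core and GAA bulge, plus designed variants) was transcribed with T7 and reacted as a pool with excess substrate F1*sub for 30 min at 42 C in 50 mM EPPS pH 8.5, 25 mM MgCl2. Ligated and unligated bands were separated by PAGE, barcoded by RT and deep sequenced; fraction ligated = ligated reads / total reads per variant, relative activity = FL / FL of wild type (0.826). Sequences are the DNA template of the ribozyme.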

In order of falling fraction ligated:
1. A27T T32A  0.874
2. A27T C33T  0.867
3. A27T G31C  0.864
4. A27T G31T  0.862
5. A27T C40A  0.856
6. A27T G31A  0.848
7. A27T C40T  0.847
8. A27T T44G  0.846
9. A27T C33A  0.84
10. A27T T30G  0.84
11. A27T C33G  0.838
12. A27T T32G  0.838
13. C28A C33T  0.829
14. C28A A41T  0.827
15. A27T T44A  0.825
16. C28A C40G  0.824
17. A27T C42T  0.822
18. A27T C42G  0.819
19. C28A C33A  0.818
20. A27T G46A  0.817
21. C28A C33G  0.813
22. A27T G55A  0.812
23. A27T G38A  0.811
24. A27T T35C  0.811
25. C28A A36T  0.811
26. C28A C42G  0.81
27. A27T C42A  0.809
28. C28A  0.809
29. C28A C40A  0.809
30. A27T C40G  0.807
31. A27T T29C  0.807
32. A27T G34A  0.806
33. C28A A36C  0.806
34. A27T T29G  0.805
35. A27T T30C  0.804
36. A27T T35A  0.804
37. A27T T35G  0.804
38. A27T T29A  0.803
39. C28A C42A  0.803
40. C28A A39C  0.802
41. A27T G47A  0.801
42. C28A A37T  0.801
43. C28A A57G  0.8
44. A27T G38T  0.799
45. A27T T43A  0.799
46. C28A A39G  0.798
47. A27T G46C  0.796
48. A27T G34C  0.795
49. C28A A36G  0.795
50. C28A A39T  0.794
51. C28A A41C  0.794
52. C28A A37G  0.793
53. A27T G55T  0.789
54. C28A A57T  0.789
55. A27T G38C  0.784
56. A27T T43G  0.784
57. C28A A48G  0.784
58. C28A A56T  0.784
59. A27T T45A  0.783
60. C28A A37C  0.779
61. C28A A41G  0.779
62. C28A A57C  0.776
63. A27T T30A  0.775
64. A27T T44C  0.775
65. C28A C40T  0.773
66. A27T G34T  0.771
67. A27T T45C  0.762
68. A27T T43C  0.761
69. A27T T49A  0.76
70. A27T G46T  0.757
71. A27T T32C  0.755
72. A27T G55C  0.749
73. C28A A56C  0.718
74. C28A A56G  0.681
75. A27T G50T  0.616
76. A27T T49C  0.512
77. C28A A48C  0.477
78. C28A A48T  0.424
79. A27T G50A  0.412
80. A27T T49G  0.287
81. A27T G50C  0.238
82. A27T T45G  0.16
83. A27T G47T  0.0847
84. A27T G47C  0.0127
